This note sets out measurements from patent publication US20200121703A1 (CLEVELAND CLINIC FOUNDATION, published 2020).

The target of the test is T1, PAG (protein associated with glycosphingolipid-enriched microdomains) (UniProt Q9NWQ8 1-432).
T1 construct: Endogenous protein of human tumor cell lines, probed by immunoblot in the CD55 immunoprecipitate
T1 sequence (looked up): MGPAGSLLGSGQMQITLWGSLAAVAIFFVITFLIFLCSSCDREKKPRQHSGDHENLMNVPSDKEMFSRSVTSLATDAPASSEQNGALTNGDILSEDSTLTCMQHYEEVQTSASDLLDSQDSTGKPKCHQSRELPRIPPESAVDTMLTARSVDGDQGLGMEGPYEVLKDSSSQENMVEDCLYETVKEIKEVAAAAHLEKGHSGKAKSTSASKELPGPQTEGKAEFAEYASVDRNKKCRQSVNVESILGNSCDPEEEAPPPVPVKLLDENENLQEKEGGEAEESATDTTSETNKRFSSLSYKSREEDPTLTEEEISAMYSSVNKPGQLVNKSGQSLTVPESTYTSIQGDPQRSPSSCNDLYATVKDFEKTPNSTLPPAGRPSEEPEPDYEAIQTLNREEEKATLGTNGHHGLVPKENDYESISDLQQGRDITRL
As to the kind of experiment: co-immunoprecipitation with anti-CD55 antibody from endometrioid CSC lysates, immunoblot for PAG. Background: In western blotting, separated proteins are transferred to a membrane and probed.

Protocol: Membranes were incubated overnight at 4° C. with primary antibodies against CD55 (1:1000) (Santa Cruz, Calif.), CD59 (1:1000) (Abcam), CD46 (1:1000) (Santa Cruz, Calif.), NANOG (1:500) (Cell Signaling), SOX2 (1:500) (Cell Signaling), OCT4 (1:500) (Cell Signaling), ROR2 (1:1000) (BD Biosciences), pJNK1 (1:1000) (T183/Y185) (Cell Signaling), JNK1 (1:1000) (Cell Signaling), p-c-Jun (1:1000) (S73) (Cell Signaling), p-c-Jun (1:1000) (S63) (Cell Signaling), c-Jun (1:1000) (Cell Signaling), pLCK (Y394) (1:1000) (BD Biosciences), LCK (1:1000) (Santa Cruz, Calif.), LIME (1:1000) (Invitrogen), PAG (1:1000) (Genetex), and (3-actin (1:1000) (Cell Signaling). Secondary anti-mouse or anti-rabbit IgG antibodies conjugated to horse radish peroxidase (HRP) (1:2000) (Thermo, Rockford, IL) were used and immunoreactive bands were visualized using the ECL plus from Pierce (Rockford, Ill., USA).
The lysates were spun at 12,000xg for 15 min at 4° C. Supernatants were incubated with rabbit anti-human CD55 primary antibody (SantaCruz, Calif.) and the corresponding antibody control for 1 hour at 4° C. Protein A/G agarose beads (Santa Cruz, Dallas, Tex.) were added to lysates which were subsequently incubated on a rotating mixer overnight at 4° C. The beads were then washed 3-4 times at 4° C., and Laemmli sample buffer was added to the beads and boiled for 5 minutes. […]

B1: CD55 (decay accelerating factor) (other, human, UniProt P08174 35-353, looked up)
chain: DCGLPPDVPNAQPALEGRTSFPEDTVITYKCEESFVKIPGEKDSVICLKGSQWSDIEEFCNRSCEVPTRLNSASLKQPYITQNYFPVGTVVEYECRPGYRREPSLSPKLTCLQNLKWSTAVEFCKKKSCPNPGEIRNGQIDVPGGILFGATISFSCNTGYKLFGSTSSFCLISGSSVQWSDPLPECREIYCPAPPQIDNGIIQGERDHYGYRQSVTYACNKGFTMIGEHSIYCTVNNDEGEWSGPPPECRGKSLTSKVPPTVQKPTTVNVPTTEVSPTSQKTTTKTTTPNAQATRSTPVSRTTKHFHETTPNKGSGTTS
modifications: GPI anchor (glycophosphatidylinositol-anchored to lipid rafts)
notes: Endogenous protein pulled down from 0.5% Triton X-100 cell lysates
For the molecule B1, the binding result is “no binding”.
